Laboratory results from patent US20260184748A1 (University of Pennsylvania, published 2026).
Where no end group is shown, it is not given here.

Legend:
Assay in all cases: cell-based or functional assay
HTR2A = HTR2A (UniProt P28223 1-471)
MC1R = MC1R (UniProt Q01726 1-317)
NTSR1 = NTSR1 (UniProt P30989 1-418)
PRLHR = target: T1, PRLHR (UniProt P49683 1-370)
T1 sequence (looked up): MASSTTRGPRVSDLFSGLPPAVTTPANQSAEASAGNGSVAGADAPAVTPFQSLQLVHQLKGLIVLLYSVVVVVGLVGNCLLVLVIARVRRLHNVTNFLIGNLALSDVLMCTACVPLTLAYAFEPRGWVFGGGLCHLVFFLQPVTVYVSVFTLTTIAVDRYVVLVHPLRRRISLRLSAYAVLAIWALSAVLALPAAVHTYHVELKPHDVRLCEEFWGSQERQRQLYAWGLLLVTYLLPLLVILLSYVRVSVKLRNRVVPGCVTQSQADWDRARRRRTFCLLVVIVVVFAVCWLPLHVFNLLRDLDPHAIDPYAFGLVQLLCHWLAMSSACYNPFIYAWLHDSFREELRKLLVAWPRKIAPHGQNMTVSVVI

PTHR2 = PTHR2 (UniProt P49190 25-550)
VIPR1 = target: T2, VIPR1 (UniProt P32241 31-457)
T2 sequence (looked up): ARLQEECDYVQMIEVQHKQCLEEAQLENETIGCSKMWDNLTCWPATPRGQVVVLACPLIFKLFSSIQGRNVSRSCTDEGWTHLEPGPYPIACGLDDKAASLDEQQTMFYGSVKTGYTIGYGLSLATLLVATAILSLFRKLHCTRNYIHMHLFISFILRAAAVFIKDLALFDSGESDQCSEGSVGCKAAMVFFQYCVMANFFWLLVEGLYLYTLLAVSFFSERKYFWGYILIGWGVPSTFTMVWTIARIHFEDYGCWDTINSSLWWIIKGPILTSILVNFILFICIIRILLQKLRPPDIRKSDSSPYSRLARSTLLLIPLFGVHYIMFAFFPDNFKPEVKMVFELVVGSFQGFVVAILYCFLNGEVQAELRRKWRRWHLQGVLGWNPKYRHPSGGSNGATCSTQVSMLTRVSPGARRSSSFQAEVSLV

C3AR1 = target: T3, C3AR1 (UniProt Q16581 1-482)
T3 sequence (looked up): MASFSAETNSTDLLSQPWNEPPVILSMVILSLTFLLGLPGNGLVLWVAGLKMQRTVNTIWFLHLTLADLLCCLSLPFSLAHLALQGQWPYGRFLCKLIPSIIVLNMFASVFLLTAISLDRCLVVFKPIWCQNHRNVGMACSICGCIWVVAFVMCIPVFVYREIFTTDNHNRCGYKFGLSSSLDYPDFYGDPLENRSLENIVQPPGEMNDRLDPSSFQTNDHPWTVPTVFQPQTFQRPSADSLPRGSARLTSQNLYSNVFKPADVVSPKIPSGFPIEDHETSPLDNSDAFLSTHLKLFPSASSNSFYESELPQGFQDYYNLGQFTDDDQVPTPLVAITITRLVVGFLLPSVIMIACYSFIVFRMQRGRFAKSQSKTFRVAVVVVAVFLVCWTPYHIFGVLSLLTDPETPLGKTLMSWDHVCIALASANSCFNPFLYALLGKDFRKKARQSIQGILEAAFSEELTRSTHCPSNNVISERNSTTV

C5aR1 = target: T4, C5aR1 (UniProt P21730 1-350)
T4 sequence (looked up): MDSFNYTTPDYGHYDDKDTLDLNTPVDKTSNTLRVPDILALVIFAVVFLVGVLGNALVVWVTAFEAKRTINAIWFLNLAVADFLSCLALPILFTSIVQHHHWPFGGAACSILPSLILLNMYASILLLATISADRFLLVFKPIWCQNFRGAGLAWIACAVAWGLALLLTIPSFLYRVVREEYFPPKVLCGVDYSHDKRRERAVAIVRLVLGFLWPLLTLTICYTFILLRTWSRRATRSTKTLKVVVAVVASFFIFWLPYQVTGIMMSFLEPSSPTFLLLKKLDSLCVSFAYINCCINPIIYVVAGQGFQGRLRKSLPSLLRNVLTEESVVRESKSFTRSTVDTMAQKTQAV

CHRM2 = target: T5, CHRM2 (UniProt P08172 1-466)
T5 sequence (looked up): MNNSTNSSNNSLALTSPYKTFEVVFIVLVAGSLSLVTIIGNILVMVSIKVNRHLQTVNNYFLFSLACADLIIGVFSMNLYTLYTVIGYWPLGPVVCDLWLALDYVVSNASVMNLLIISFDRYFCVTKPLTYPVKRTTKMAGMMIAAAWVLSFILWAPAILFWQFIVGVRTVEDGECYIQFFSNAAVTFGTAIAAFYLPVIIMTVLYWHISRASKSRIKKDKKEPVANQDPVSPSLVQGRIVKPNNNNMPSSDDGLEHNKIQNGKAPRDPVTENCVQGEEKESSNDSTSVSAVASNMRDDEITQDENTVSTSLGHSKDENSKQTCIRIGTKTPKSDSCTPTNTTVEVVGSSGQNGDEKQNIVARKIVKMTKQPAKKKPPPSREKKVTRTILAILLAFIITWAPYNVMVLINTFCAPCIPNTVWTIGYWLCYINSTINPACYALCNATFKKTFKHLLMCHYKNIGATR

EBI2 = EBI2 (UniProt P32249 1-361)
GPR1 = target: T6, GPR1 (UniProt P46091 1-355)
T6 sequence (looked up): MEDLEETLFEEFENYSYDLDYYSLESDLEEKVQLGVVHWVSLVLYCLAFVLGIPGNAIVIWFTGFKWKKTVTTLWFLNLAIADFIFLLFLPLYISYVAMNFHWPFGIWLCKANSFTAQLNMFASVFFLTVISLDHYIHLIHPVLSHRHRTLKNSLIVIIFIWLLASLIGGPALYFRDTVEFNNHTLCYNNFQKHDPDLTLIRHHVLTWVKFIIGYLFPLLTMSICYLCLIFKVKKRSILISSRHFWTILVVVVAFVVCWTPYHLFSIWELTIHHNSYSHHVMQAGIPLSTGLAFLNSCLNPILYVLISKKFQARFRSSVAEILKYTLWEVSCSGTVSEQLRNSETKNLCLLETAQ

GPR109A = GPR109A (UniProt Q8TDS4 1-363)
Chain of GPR109A (Q8TDS4 whole entry): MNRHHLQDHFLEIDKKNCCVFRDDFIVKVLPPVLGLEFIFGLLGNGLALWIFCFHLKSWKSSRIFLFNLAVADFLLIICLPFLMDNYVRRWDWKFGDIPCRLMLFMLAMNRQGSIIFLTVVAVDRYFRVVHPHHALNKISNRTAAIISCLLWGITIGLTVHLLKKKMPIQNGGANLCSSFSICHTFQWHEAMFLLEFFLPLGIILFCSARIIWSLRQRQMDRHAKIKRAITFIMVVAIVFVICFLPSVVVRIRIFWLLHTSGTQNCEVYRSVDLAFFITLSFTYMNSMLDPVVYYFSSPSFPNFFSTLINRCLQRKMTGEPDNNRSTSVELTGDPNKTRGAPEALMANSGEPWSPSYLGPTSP

Chain of HTR2A (P28223 whole entry): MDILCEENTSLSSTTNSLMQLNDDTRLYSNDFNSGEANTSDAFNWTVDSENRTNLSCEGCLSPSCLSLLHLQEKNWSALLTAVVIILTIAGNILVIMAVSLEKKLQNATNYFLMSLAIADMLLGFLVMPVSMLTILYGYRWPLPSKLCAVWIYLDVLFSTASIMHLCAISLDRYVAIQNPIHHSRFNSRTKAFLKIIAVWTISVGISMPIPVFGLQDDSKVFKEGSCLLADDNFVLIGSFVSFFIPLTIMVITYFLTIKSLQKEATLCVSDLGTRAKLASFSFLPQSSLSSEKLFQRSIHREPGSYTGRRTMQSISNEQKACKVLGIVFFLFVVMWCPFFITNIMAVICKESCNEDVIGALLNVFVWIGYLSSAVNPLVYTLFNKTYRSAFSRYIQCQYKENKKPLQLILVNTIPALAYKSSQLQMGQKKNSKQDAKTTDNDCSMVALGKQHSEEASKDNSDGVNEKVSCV
Chain of PTHR2 (P49190 25-550 limits assumed): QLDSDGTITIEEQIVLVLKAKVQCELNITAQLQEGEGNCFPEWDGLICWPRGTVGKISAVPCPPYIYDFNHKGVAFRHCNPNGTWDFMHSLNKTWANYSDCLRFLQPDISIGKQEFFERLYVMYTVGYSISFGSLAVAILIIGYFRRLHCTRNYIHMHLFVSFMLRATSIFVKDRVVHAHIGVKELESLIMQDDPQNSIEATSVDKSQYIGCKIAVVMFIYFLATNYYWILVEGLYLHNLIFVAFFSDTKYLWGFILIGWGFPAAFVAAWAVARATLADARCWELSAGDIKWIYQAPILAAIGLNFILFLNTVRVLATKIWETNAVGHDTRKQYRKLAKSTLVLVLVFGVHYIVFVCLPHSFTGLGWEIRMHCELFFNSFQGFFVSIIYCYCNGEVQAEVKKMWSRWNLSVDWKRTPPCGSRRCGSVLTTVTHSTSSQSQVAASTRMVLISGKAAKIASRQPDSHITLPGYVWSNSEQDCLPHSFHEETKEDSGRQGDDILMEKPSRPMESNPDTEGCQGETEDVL
Chain of NTSR1 (P30989 whole entry): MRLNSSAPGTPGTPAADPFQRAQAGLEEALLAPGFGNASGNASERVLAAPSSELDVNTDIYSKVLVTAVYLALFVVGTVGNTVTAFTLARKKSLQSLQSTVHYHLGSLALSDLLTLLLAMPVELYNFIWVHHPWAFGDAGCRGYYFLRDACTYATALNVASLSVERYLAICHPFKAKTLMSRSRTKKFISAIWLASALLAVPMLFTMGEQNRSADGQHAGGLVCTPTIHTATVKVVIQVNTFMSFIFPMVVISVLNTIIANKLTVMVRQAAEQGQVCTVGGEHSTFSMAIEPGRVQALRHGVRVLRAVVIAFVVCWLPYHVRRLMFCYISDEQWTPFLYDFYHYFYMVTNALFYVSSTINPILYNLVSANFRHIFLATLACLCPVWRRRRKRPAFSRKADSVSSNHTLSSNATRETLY
Chain of EBI2 (P32249 whole entry): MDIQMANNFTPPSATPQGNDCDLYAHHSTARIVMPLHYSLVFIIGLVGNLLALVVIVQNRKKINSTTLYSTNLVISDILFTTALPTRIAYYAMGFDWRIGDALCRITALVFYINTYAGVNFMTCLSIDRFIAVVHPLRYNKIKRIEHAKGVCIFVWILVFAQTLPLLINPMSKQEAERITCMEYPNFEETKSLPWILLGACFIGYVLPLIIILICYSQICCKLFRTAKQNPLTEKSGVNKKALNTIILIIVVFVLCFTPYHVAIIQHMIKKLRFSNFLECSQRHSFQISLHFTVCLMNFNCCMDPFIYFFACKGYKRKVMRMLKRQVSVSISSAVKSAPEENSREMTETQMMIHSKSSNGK
Chain of MC1R (Q01726 whole entry): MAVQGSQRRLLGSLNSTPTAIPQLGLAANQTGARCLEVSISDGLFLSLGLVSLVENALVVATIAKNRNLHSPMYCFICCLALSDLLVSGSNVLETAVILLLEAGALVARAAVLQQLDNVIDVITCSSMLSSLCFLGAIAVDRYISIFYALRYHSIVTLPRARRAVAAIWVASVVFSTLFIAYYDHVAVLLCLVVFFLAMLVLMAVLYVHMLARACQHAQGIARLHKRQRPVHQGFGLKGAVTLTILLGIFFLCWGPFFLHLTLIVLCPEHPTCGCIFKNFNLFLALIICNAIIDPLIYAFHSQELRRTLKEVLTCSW

QATVGDVNTDRPGLLDLK (also: synthesised on Rink amide resin, C-terminal amide not given here outright) [octadecaneuropeptide (ODN)]
% Activity, arrestin, antagonist mode, 2.5 uM (HTR2A): -9.7%
% Activity, arrestin, antagonist mode, 2.5 uM (MC1R): 0.4%
% Activity, arrestin, antagonist mode, 2.5 uM (NTSR1): -21.4%
% Activity, arrestin, antagonist mode, 2.5 uM (PRLHR): -22.2%
% Activity, arrestin, antagonist mode, 2.5 uM (PTHR2): 4.5%
% Activity, arrestin, antagonist mode, 2.5 uM (VIPR1): -11.6%
% Activity, arrestin, antagonist mode, 2.5 uM (C3AR1): 4%
% Activity, arrestin, antagonist mode, 2.5 uM (C5aR1): -14.2%
% Activity, arrestin, antagonist mode, 2.5 uM (CHRM2): 3.3%
% Activity, arrestin, antagonist mode, 2.5 uM (EBI2): -27.3%
% Activity, arrestin, antagonist mode, 2.5 uM (GPR1): -1.3%
% Activity, arrestin, antagonist mode, 2.5 uM (GPR109A): -16%
